Publication PMC9352680, “A comprehensive thermodynamic model for RNA binding by the Saccharomyces cerevisiae Pumilio protein PUF4”

T1: PUF4 RNA-binding domain (Saccharomyces cerevisiae, UniProt P25339 537-888)
T1 sequence: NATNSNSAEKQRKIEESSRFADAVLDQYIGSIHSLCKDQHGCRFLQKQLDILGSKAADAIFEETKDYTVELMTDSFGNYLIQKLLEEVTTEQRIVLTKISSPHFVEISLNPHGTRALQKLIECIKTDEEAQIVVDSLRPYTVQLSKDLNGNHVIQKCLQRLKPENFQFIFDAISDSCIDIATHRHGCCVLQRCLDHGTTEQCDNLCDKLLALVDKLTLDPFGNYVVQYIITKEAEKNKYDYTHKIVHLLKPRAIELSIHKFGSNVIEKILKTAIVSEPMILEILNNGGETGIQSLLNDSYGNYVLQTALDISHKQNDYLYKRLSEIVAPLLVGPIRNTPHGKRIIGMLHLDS


These binders were tested against T1, PUF4 RNA-binding domain (assay: Mg; RNA-MaP; 20 mM Na-HEPES pH 7.4, 30 mM KOAc, 0.75 mM MgCl2, 0.1% Tween-20, 5% glycerol, 0.1 mg/mL BSA, 2 mM DTT; 25 C; 0.0125-409.6 nM protein). Conditions: tags: N-His6-TEV cleaved; C-SNAP kept, Cy3B-labelled; label: tethered on chip by stalled RNA polymerase.

Binder	Kd [nM]
UCUCUUUGUAAUAUCAUCUCUU (ssRNA) [Ic_S1_P5E.1_K5.1_C5.1_H5.1_A5.1_[T5A]_F5.1_[T9C]_T5.1]	26.1
UCUCUUUGUAUCAUGAUCUCUU (ssRNA) [Ib_S1_P5E.1_K5.1_C5.1_H5.1_A5.1_[T6C]_F5.1_[T9G]_T5.1]	24.9
Id_ii_S2_P5E.4_K5.3_C5.2_[C-2G]_H5.3_A5.1_F5.1_T5.2_[T11A]_[A12T] (ssRNA) RNA: UUUGAUUAAUAUGAUAUCGUUCUUUCUGUACACUUAUUAAUUUCUUUCUCGAUAUCAUAUUAAUCUUU	1.37
Id_ii_S2_P5E.4_K5.3_C5.2_[C-2T]_H5.3_A5.1_F5.1_T5.2_[T11C]_[A12C] (ssRNA) RNA: UUUGAUUAAUAUGAUAUCGUUCUUUCUUUACACUUAUUACCUUCUUUCUCGAUAUCAUAUUAAUCUUU	1930
Id_ii_S2_P5E.4_K5.3_C5.2_[C-2T]_H5.3_A5.1_F5.1_T5.2 (ssRNA) RNA: UUUGAUUAAUAUGAUAUCGUUCUUUCUUUACACUUAUUAUAUUCUUUCUCGAUAUCAUAUUAAUCUUU	722
Id_ii_S2_P5E.4_K5.3_C5.2_[C-2T]_[T-1C]_H5.3_A5.1_F5.1_T5.2_[A12C] (ssRNA) RNA: UUUGAUUAAUAUGAUAUCGUUCUUUCUUCACACUUAUUAUCUUCUUUCUCGAUAUCAUAUUAAUCUUU	> 2300
Id_ii_S2_P5E.4_K5.3_C5.2_[C-2T]_[T-1C]_H5.3_A5.1_F5.1_T5.2_[T11C]_[A12T] (ssRNA) RNA: UUUGAUUAAUAUGAUAUCGUUCUUUCUUCACACUUAUUACUUUCUUUCUCGAUAUCAUAUUAAUCUUU	> 2300
Id_ii_S2_P5E.4_K5.3_C5.2_[C-2A]_[T-1C]_H5.3_A5.1_F5.1_T5.2_[A12C] (ssRNA) RNA: UUUGAUUAAUAUGAUAUCGUUCUUUCUACACACUUAUUAUCUUCUUUCUCGAUAUCAUAUUAAUCUUU	> 2300
Id_ii_S2_P5E.4_K5.3_C5.2_[C-2A]_[T-1C]_H5.3_A5.1_F5.1_T5.2_[T11A] (ssRNA) RNA: UUUGAUUAAUAUGAUAUCGUUCUUUCUACACACUUAUUAAAUUCUUUCUCGAUAUCAUAUUAAUCUUU	> 2300
Id_ii_S2_P5E.4_K5.3_C5.2_[C-2T]_[T-1A]_H5.3_A5.1_F5.1_T5.2_[T11C]_[A12G] (ssRNA) RNA: UUUGAUUAAUAUGAUAUCGUUCUUUCUUAACACUUAUUACGUUCUUUCUCGAUAUCAUAUUAAUCUUU	> 2300
Id_ii_S2_P5E.4_K5.3_C5.2_[C-2T]_[T-1C]_H5.3_A5.1_F5.1_T5.2_[T11C]_[A12C] (ssRNA) RNA: UUUGAUUAAUAUGAUAUCGUUCUUUCUUCACACUUAUUACCUUCUUUCUCGAUAUCAUAUUAAUCUUU	> 2300
Id_ii_S2_P5E.4_K5.3_C5.2_[C-2A]_[T-1A]_H5.3_A5.1_F5.1_T5.2_[T11C]_[A12G] (ssRNA) RNA: UUUGAUUAAUAUGAUAUCGUUCUUUCUAAACACUUAUUACGUUCUUUCUCGAUAUCAUAUUAAUCUUU	> 2300
Id_ii_S2_P5E.4_K5.3_C5.2_[C-2T]_H5.3_A5.1_F5.1_T5.2_[T11C]_[A12G] (ssRNA) RNA: UUUGAUUAAUAUGAUAUCGUUCUUUCUUUACACUUAUUACGUUCUUUCUCGAUAUCAUAUUAAUCUUU	> 2300
Id_ii_S2_P5E.4_K5.3_C5.2_[C-2T]_H5.3_A5.1_F5.1_T5.2_[A12C] (ssRNA) RNA: UUUGAUUAAUAUGAUAUCGUUCUUUCUUUACACUUAUUAUCUUCUUUCUCGAUAUCAUAUUAAUCUUU	1890
Id_ii_S2_P5E.4_K5.3_C5.2_[C-2T]_[T-1C]_H5.3_A5.1_F5.1_T5.2_[T11C] (ssRNA) RNA: UUUGAUUAAUAUGAUAUCGUUCUUUCUUCACACUUAUUACAUUCUUUCUCGAUAUCAUAUUAAUCUUU	> 2300
Id_ii_S2_P5E.4_K5.3_C5.2_[C-2A]_[T-1A]_H5.3_A5.1_F5.1_T5.2_[T11C] (ssRNA) RNA: UUUGAUUAAUAUGAUAUCGUUCUUUCUAAACACUUAUUACAUUCUUUCUCGAUAUCAUAUUAAUCUUU	> 2300
Id_ii_S2_P5E.4_K5.3_C5.2_[C-2T]_[T-1A]_H5.3_A5.1_F5.1_T5.2 (ssRNA) RNA: UUUGAUUAAUAUGAUAUCGUUCUUUCUUAACACUUAUUAUAUUCUUUCUCGAUAUCAUAUUAAUCUUU	790
Id_ii_S2_P5E.4_K5.3_C5.2_[C-2T]_H5.3_A5.1_F5.1_T5.2_[A12T] (ssRNA) RNA: UUUGAUUAAUAUGAUAUCGUUCUUUCUUUACACUUAUUAUUUUCUUUCUCGAUAUCAUAUUAAUCUUU	1990
Id_ii_S2_P5E.4_K5.3_C5.2_[C-2A]_[T-1A]_H5.3_A5.1_F5.1_T5.2_[T11C]_[A12C] (ssRNA) RNA: UUUGAUUAAUAUGAUAUCGUUCUUUCUAAACACUUAUUACCUUCUUUCUCGAUAUCAUAUUAAUCUUU	> 2300
Id_ii_S2_P5E.4_K5.3_C5.2_[C-2A]_[T-1C]_H5.3_A5.1_F5.1_T5.2_[T11G]_[A12C] (ssRNA) RNA: UUUGAUUAAUAUGAUAUCGUUCUUUCUACACACUUAUUAGCUUCUUUCUCGAUAUCAUAUUAAUCUUU	> 2300
Id_ii_S2_P5E.4_K5.3_C5.2_[C-2T]_[T-1C]_H5.3_A5.1_F5.1_T5.2_[T11A]_[A12T] (ssRNA) RNA: UUUGAUUAAUAUGAUAUCGUUCUUUCUUCACACUUAUUAAUUUCUUUCUCGAUAUCAUAUUAAUCUUU	> 2300

Binder	Kd [nM]
Id_ii_S2_P5E.4_K5.3_C5.2_[C-2T]_[T-1A]_H5.3_A5.1_F5.1_T5.2_[T11A]_[A12T] (ssRNA) RNA: UUUGAUUAAUAUGAUAUCGUUCUUUCUUAACACUUAUUAAUUUCUUUCUCGAUAUCAUAUUAAUCUUU	> 2300
Id_ii_S2_P5E.4_K5.3_C5.2_[C-2T]_[T-1C]_H5.3_A5.1_F5.1_T5.2 (ssRNA) RNA: UUUGAUUAAUAUGAUAUCGUUCUUUCUUCACACUUAUUAUAUUCUUUCUCGAUAUCAUAUUAAUCUUU	751
Id_ii_S2_P5E.4_K5.3_C5.2_[C-2G]_H5.3_A5.1_F5.1_T5.2 (ssRNA) RNA: UUUGAUUAAUAUGAUAUCGUUCUUUCUGUACACUUAUUAUAUUCUUUCUCGAUAUCAUAUUAAUCUUU	2.21
Id_ii_S2_P5E.4_K5.3_C5.2_[C-2G]_H5.3_A5.1_F5.1_T5.2_[A12C] (ssRNA) RNA: UUUGAUUAAUAUGAUAUCGUUCUUUCUGUACACUUAUUAUCUUCUUUCUCGAUAUCAUAUUAAUCUUU	1.12
Id_ii_S2_P5E.4_K5.3_C5.2_[C-2T]_[T-1A]_H5.3_A5.1_F5.1_T5.2_[T11C] (ssRNA) RNA: UUUGAUUAAUAUGAUAUCGUUCUUUCUUAACACUUAUUACAUUCUUUCUCGAUAUCAUAUUAAUCUUU	> 2300
Id_ii_S2_P5E.4_K5.3_C5.2_[C-2T]_[T-1A]_H5.3_A5.1_F5.1_T5.2_[T11A]_[A12C] (ssRNA) RNA: UUUGAUUAAUAUGAUAUCGUUCUUUCUUAACACUUAUUAACUUCUUUCUCGAUAUCAUAUUAAUCUUU	> 2300
Id_ii_S2_P5E.4_K5.3_C5.2_[C-2A]_[T-1C]_H5.3_A5.1_F5.1_T5.2_[T11C]_[A12C] (ssRNA) RNA: UUUGAUUAAUAUGAUAUCGUUCUUUCUACACACUUAUUACCUUCUUUCUCGAUAUCAUAUUAAUCUUU	> 2300
Id_ii_S2_P5E.4_K5.3_C5.2_[C-2A]_[T-1C]_H5.3_A5.1_F5.1_T5.2_[T11C]_[A12G] (ssRNA) RNA: UUUGAUUAAUAUGAUAUCGUUCUUUCUACACACUUAUUACGUUCUUUCUCGAUAUCAUAUUAAUCUUU	> 2300
Id_ii_S2_P5E.4_K5.3_C5.2_[C-2G]_H5.3_A5.1_F5.1_T5.2_[T11A] (ssRNA) RNA: UUUGAUUAAUAUGAUAUCGUUCUUUCUGUACACUUAUUAAAUUCUUUCUCGAUAUCAUAUUAAUCUUU	1.43
Id_ii_S2_P5E.4_K5.3_C5.2_[C-2G]_H5.3_A5.1_F5.1_T5.2_[A12T] (ssRNA) RNA: UUUGAUUAAUAUGAUAUCGUUCUUUCUGUACACUUAUUAUUUUCUUUCUCGAUAUCAUAUUAAUCUUU	1.25
Id_ii_S2_P5E.4_K5.3_C5.2_[C-2T]_H5.3_A5.1_F5.1_T5.2_[T11A]_[A12T] (ssRNA) RNA: UUUGAUUAAUAUGAUAUCGUUCUUUCUUUACACUUAUUAAUUUCUUUCUCGAUAUCAUAUUAAUCUUU	> 2300
Id_ii_S2_P5E.4_K5.3_C5.2_[C-2A]_[T-1C]_H5.3_A5.1_F5.1_T5.2_[T11C] (ssRNA) RNA: UUUGAUUAAUAUGAUAUCGUUCUUUCUACACACUUAUUACAUUCUUUCUCGAUAUCAUAUUAAUCUUU	> 2300
Id_ii_S2_P5E.4_K5.3_C5.2_[C-2T]_[T-1A]_H5.3_A5.1_F5.1_T5.2_[A12C] (ssRNA) RNA: UUUGAUUAAUAUGAUAUCGUUCUUUCUUAACACUUAUUAUCUUCUUUCUCGAUAUCAUAUUAAUCUUU	> 2300
Id_ii_S2_P5E.4_K5.3_C5.2_[C-2T]_H5.3_A5.1_F5.1_T5.2_[T11A]_[A12C] (ssRNA) RNA: UUUGAUUAAUAUGAUAUCGUUCUUUCUUUACACUUAUUAACUUCUUUCUCGAUAUCAUAUUAAUCUUU	> 2300
Id_ii_S2_P5E.4_K5.3_C5.2_[C-2A]_[T-1C]_H5.3_A5.1_F5.1_T5.2 (ssRNA) RNA: UUUGAUUAAUAUGAUAUCGUUCUUUCUACACACUUAUUAUAUUCUUUCUCGAUAUCAUAUUAAUCUUU	754
Id_ii_S2_P5E.4_K5.3_C5.2_[C-2T]_[T-1C]_H5.3_A5.1_F5.1_T5.2_[T11C]_[A12G] (ssRNA) RNA: UUUGAUUAAUAUGAUAUCGUUCUUUCUUCACACUUAUUACGUUCUUUCUCGAUAUCAUAUUAAUCUUU	> 2300
Id_ii_S2_P5E.4_K5.3_C5.2_[C-2T]_H5.3_A5.1_F5.1_T5.2_[T11G]_[A12C] (ssRNA) RNA: UUUGAUUAAUAUGAUAUCGUUCUUUCUUUACACUUAUUAGCUUCUUUCUCGAUAUCAUAUUAAUCUUU	> 2300
Id_ii_S2_P5E.4_K5.3_C5.2_[C-2A]_[T-1C]_H5.3_A5.1_F5.1_T5.2_[A12T] (ssRNA) RNA: UUUGAUUAAUAUGAUAUCGUUCUUUCUACACACUUAUUAUUUUCUUUCUCGAUAUCAUAUUAAUCUUU	> 2300
Id_ii_S2_P5E.4_K5.3_C5.2_[C-2T]_H5.3_A5.1_F5.1_T5.2_[T11C]_[A12T] (ssRNA) RNA: UUUGAUUAAUAUGAUAUCGUUCUUUCUUUACACUUAUUACUUUCUUUCUCGAUAUCAUAUUAAUCUUU	1530
Id_ii_S2_P5E.4_K5.3_C5.2_[C-2A]_[T-1C]_H5.3_A5.1_F5.1_T5.2_[T11A]_[A12C] (ssRNA) RNA: UUUGAUUAAUAUGAUAUCGUUCUUUCUACACACUUAUUAACUUCUUUCUCGAUAUCAUAUUAAUCUUU	> 2300
UCUCUUUGUAAUAUAAUCUCUU (ssRNA) [Ib_S1_P5E.1_K5.1_C5.1_H5.1_A5.1_[T5A]_F5.1_[T9A]_T5.1]	3.3
